How the values were obtained:
Assay in all cases: positional peptide library pulldown on immobilised Nb, LC-MS of supernatant; signal ratio to control GFP-Nb (1 = not captured, near 0 = captured)
[1] = target: T1, BC2T S8N
T1 construct: positional scanning library member
T1 peptide: Ac-PDRKAAVNHWQQ-NH2
Text: (§1) In total, 12 different BC2T libraries displaying all 20 proteinogenic amino acids in one single position of the peptide were used in immunoprecipitation experiments. […] The direct comparison with the GFP-Nb made it possible to determine the quantitative degree of peptide capture without the need of labeled standards. […] The more peptide was captured the more the value approximates 0. It was not possible to discriminate between isoleucine (I) and leucine (L) peptide versions since these peptides are isobaric.
(§2) To investigate the binding specificity of the BC2T and derived mutants peptide libraries for each amino acid position of the sequence […] (SEQ ID NO:4) were synthesized with acetyl and amide groups located at the N-termini or C-termini respectively (Intavis). […] Incubations were performed in 300 μl PBS/0.01% CHAPS for 1 h on a HulaMixer (Life Technologies). Subsequent to a centrifugation step 10 μl supernatant were analyzed in a LC-MS procedure. Peptides were separated using an UltiMate3000 RSLCnano System (Thermo Scientific), composed of a C18 PepMap100μ-Precolumn (300 μm×5 mm; particle size: 5 μm; pore size: 100 Å—Thermo Scientific) and a C18 analytical column (Acclaim Rapid Separation LC (RSLC) Column: 150 mm×5 mm; particle size: 2.2 μm; pore size: 100 Å—Thermo Scientific). A step gradient was applied starting at 8% and ending after 20 min at 30% eluent B (80% acetonitrile, 20% H₂O, 0.1% formic acid).

[2] = target: T2, BC2T Q11V
T2 construct: positional scanning library member
T2 peptide: Ac-PDRKAAVSHWVQ-NH2
Text: as §1, §2

[3] = target: T3, BC2T H9F
T3 construct: positional scanning library member
T3 peptide: Ac-PDRKAAVSFWQQ-NH2
Text: as §1, §2

[4] = target: T4, BC2T S8A
T4 construct: positional scanning library member
T4 peptide: Ac-PDRKAAVAHWQQ-NH2
Text: as §1, §2

[5] = target: T5, BC2T Q12R
T5 construct: positional scanning library member
T5 peptide: Ac-PDRKAAVSHWQR-NH2
Text: as §1, §2

[6] = target: T6, BC2T H9S
T6 construct: positional scanning library member
T6 peptide: Ac-PDRKAAVSSWQQ-NH2
Text: as §1, §2

[7] = target: T7, BC2T Q12N
T7 construct: positional scanning library member
T7 peptide: Ac-PDRKAAVSHWQN-NH2
Text: as §1, §2

[8] = target: T8, BC2T H9K
T8 construct: positional scanning library member
T8 peptide: Ac-PDRKAAVSKWQQ-NH2
Text: as §1, §2

[9] = target: T9, BC2T Q11W
T9 construct: positional scanning library member
T9 peptide: Ac-PDRKAAVSHWWQ-NH2
Text: as §1, §2

[10] = target: T10, BC2T Q11H
T10 construct: positional scanning library member
T10 peptide: Ac-PDRKAAVSHWHQ-NH2
Text: as §1, §2

[11] = target: T11, BC2T H9Y
T11 construct: positional scanning library member
T11 peptide: Ac-PDRKAAVSYWQQ-NH2
Text: as §1, §2

[12] = target: T12, BC2T H9Q
T12 construct: positional scanning library member
T12 peptide: Ac-PDRKAAVSQWQQ-NH2
Text: as §1, §2

[13] = target: T13, BC2T S8(I/L2) (N-terminal acetyl; C-terminal amide)
T13 construct: positional scanning library member; I or L not resolved
Text: as §1, §2

[14] = target: T14, BC2T H9(I/L2) (N-terminal acetyl; C-terminal amide)
T14 construct: positional scanning library member; I or L not resolved
Text: as §1, §2

[15] = target: T15, BC2T Q12K
T15 construct: positional scanning library member
T15 peptide: Ac-PDRKAAVSHWQK-NH2
Text: as §1, §2

[16] = target: T16, BC2T Q12A
T16 construct: positional scanning library member
T16 peptide: Ac-PDRKAAVSHWQA-NH2
Text: as §1, §2

[17] = target: T17, BC2T Q11M
T17 construct: positional scanning library member
T17 peptide: Ac-PDRKAAVSHWMQ-NH2
Text: as §1, §2

[18] = target: T18, BC2T Q11R
T18 construct: positional scanning library member
T18 peptide: Ac-PDRKAAVSHWRQ-NH2
Text: as §1, §2

[19] = target: T19, BC2T Q12F
T19 construct: positional scanning library member
T19 peptide: Ac-PDRKAAVSHWQF-NH2
Text: as §1, §2

[20] = target: T20, BC2T S8Y
T20 construct: positional scanning library member
T20 peptide: Ac-PDRKAAVYHWQQ-NH2
Text: as §1, §2

[21] = target: T21, BC2T S8M
T21 construct: positional scanning library member
T21 peptide: Ac-PDRKAAVMHWQQ-NH2
Text: as §1, §2

B1: BC2 nanobody (VHH)
VHH: QVQLVESGGGLVQPGGSLTLSCTASGFTLDHYDIGWFRQAPGKEREGVSCINNSDDDTYYADSVKGRFTIFMDNAKDTVYLQMNSLKPEDTAIYYCAEARGCKRGRYEYDFWGQGTQVTVSS
notes: immobilised on beads in this assay; also called BC2-Nb; BC2 nanotrap (immobilised)
[1]
  ratio: 0.2
[2]
  ratio: 0.1
[3]
  ratio: 0.1
[4]
  ratio: 0
[5]
  ratio: 0.1
[6]
  ratio: 0.2
[7]
  ratio: 0.1
[8]
  ratio: 0.2
[9]
  ratio: 0
[10]
  ratio: 0.1
[11]
  ratio: 0.1
[12]
  ratio: 0.2
[13]
  ratio: 0.7
[14]
  ratio: 0.1
[15]
  ratio: 0
[16]
  ratio: 0.1
[17]
  ratio: 0.1
[18]
  ratio: 0
[19]
  ratio: 0.2
[20]
  ratio: 0.6
[21]
  ratio: 0.6

B2: BC2-NbR106S (VHH)
VHH: QVQLVESGGGLVQPGGSLTLSCTASGFTLDHYDIGWFRQAPGKEREGVSCINNSDDDTYYADSVKGRFTIFMDNAKDTVYLQMNSLKPEDTAIYYCAEARGCKRGSYEYDFWGQGTQVTVSS
notes: headlock mutant of BC2-Nb; immobilised on beads in this assay
[1]
  ratio: 0.7
[2]
  ratio: 0.2
[3]
  ratio: 0.3
[4]
  ratio: 0.1
[5]
  ratio: 0.1
[6]
  ratio: 0.5
[7]
  ratio: 0.2
[8]
  ratio: 0.3
[9]
  ratio: 0.1
[10]
  ratio: 0.2
[11]
  ratio: 0.2
[12]
  ratio: 0.4
[13]
  ratio: 0.9
[14]
  ratio: 0.3
[15]
  ratio: 0.1
[16]
  ratio: 0.3
[17]
  ratio: 0.3
[18]
  ratio: 0.1
[19]
  ratio: 0.4
[20]
  ratio: 0.9
[21]
  ratio: 1

Reference: patent publication US20170137467A1 (CHROMOTEK, published 2017)
